The values that follow come from PMC12190498, “Improving the Catalytic Activity and Thermostability of FAST-PETase with a Multifunctional Short Peptide” (Biomolecules, 2025).

Substrate in the data set: CCCC(=O)Oc1ccc([N+](=O)[O-])cc1
Put plainly: purified protein. The format is biochemical, Pseudideonella sakaiensis.

[1] abbreviates: 50 mM potassium phosphate pH 7.5, 50°C or 55°C (50°C is the optimum of this enzyme).
The mark [2] stands for this setting: 50 mM potassium phosphate pH 7.5, 50°C or 55°C (55°C is the optimum of this enzyme).

B1: FAST-PETase (Pseudideonella sakaiensis; D186H/N233K/R224Q/R280A/S121E) (protein)
chain: QTNPYARGPNPTAASLEASAGPFTVRSFTVSRPSGYGAGTVYYPTNAGGTVGAIAIVPGYTARQSSIKWWGPRLASHGFVVITIDTNSTLDQPESRSSQQMAALRQVASLNGTSSSPIYGKVDTARMGVMGWSMGGGGSLISAANNPSLKAAAPQAPWHSSTNFSSVTVPTLIFACENDSIAPVNSSALPIYDSMSQNAKQFLEIKGGSHSCANSGNSNQALIGKKGVAWMKRFMDNDTRYSTFACENPNSTAVSDFRTANCS
notes: FAST-PETase, C-terminal 6xHis, pET28a, E. coli Origami 2(DE3), Ni-NTA
Broadly, the Km is the substrate concentration at which the rate is half of its maximum. The term kcat denotes the maximal rate divided by the concentration of active sites. One may read the kcat/Km as the turnover number divided by the Michaelis constant. With B1, under setting [1], the Km came out at 880 ± 160 µM, the kcat is 0.724 ± 0.0532 s⁻¹ and the kcat/Km was found to be 824 ± 112 M⁻¹ s⁻¹.

B2: FAST-PETase-S1v1 (Pseudideonella sakaiensis; D186H/N233K/R224Q/R280A/S121E) (protein)
chain: QTNPYARGPNPTAASLEASAGPFTVRSFTVSRPSGYGAGTVYYPTNAGGTVGAIAIVPGYTARQSSIKWWGPRLASHGFVVITIDTNSTLDQPESRSSQQMAALRQVASLNGTSSSPIYGKVDTARMGVMGWSMGGGGSLISAANNPSLKAAAPQAPWHSSTNFSSVTVPTLIFACENDSIAPVNSSALPIYDSMSQNAKQFLEIKGGSHSCANSGNSNQALIGKKGVAWMKRFMDNDTRYSTFACENPNSTAVSDFRTANCS
notes: artificial peptide S1v1 (AEAEAHAH)2 fused to C-terminus via PT-linker …, C-terminal 6xHis, E. coli Origami 2(DE3), Ni-NTA
For the protein B2, under setting [2], the Km is 1220 ± 180 µM, the kcat is 1.36 ± 0.0918 s⁻¹ and the specificity constant (kcat/Km) was 1110 ± 138 M⁻¹ s⁻¹.

B3: S1v1-FAST-PETase (Pseudideonella sakaiensis; D186H/N233K/R224Q/R280A/S121E) (protein)
chain: QTNPYARGPNPTAASLEASAGPFTVRSFTVSRPSGYGAGTVYYPTNAGGTVGAIAIVPGYTARQSSIKWWGPRLASHGFVVITIDTNSTLDQPESRSSQQMAALRQVASLNGTSSSPIYGKVDTARMGVMGWSMGGGGSLISAANNPSLKAAAPQAPWHSSTNFSSVTVPTLIFACENDSIAPVNSSALPIYDSMSQNAKQFLEIKGGSHSCANSGNSNQALIGKKGVAWMKRFMDNDTRYSTFACENPNSTAVSDFRTANCS
notes: artificial peptide S1v1 (AEAEAHAH)2 fused to N-terminus via PT-linker …, C-terminal 6xHis, E. coli Origami 2(DE3), Ni-NTA
In the case of B3, under setting [2], the Michaelis-Menten constant (Km) turned out to be 860 ± 150 µM, the kcat is 0.581 ± 0.0392 s⁻¹ and the kcat/Km was 679 ± 72.2 M⁻¹ s⁻¹.
